1 molecule from PMC11980035, “Activation of automethylated PRC2 by dimerization on chromatin” (Molecular cell, 2024) can be followed below.

The assay addresses T1, Enhancer of zeste homolog 2 (EZH2), isoform 2, subunit of recombinant human PRC2, automethylated (human, UniProt Q15910-2 1-751, K510, K514 and K515 methylated to varying degrees (automethylation)).
T1 construct: EZH2 isoform 2, human, full-length; Stood in the assay as a subunit of PRC2; also called EZH2^dist; EZH2^prox; source: as subunit of m1: HighFive / Trichoplusia ni insect cells, baculovirus, purified within PRC2
Description: cryo-EM structure; 800 nM automethylated PRC2 with 200 nM biotinylated nucleosome and 100 μM SAH in 25 mM HEPES pH 7.9, 50 mM KCl, 1 mM TCEP, 30 minutes at RT; nucleosome held on streptavidin affinity grids; classes of a PRC2 dimer and of a PRC2 monomer on the nucleosome. To be noted: both partners purified.

T1 sequence (Q15910 other isoform, or with tags, fused parts or gaps): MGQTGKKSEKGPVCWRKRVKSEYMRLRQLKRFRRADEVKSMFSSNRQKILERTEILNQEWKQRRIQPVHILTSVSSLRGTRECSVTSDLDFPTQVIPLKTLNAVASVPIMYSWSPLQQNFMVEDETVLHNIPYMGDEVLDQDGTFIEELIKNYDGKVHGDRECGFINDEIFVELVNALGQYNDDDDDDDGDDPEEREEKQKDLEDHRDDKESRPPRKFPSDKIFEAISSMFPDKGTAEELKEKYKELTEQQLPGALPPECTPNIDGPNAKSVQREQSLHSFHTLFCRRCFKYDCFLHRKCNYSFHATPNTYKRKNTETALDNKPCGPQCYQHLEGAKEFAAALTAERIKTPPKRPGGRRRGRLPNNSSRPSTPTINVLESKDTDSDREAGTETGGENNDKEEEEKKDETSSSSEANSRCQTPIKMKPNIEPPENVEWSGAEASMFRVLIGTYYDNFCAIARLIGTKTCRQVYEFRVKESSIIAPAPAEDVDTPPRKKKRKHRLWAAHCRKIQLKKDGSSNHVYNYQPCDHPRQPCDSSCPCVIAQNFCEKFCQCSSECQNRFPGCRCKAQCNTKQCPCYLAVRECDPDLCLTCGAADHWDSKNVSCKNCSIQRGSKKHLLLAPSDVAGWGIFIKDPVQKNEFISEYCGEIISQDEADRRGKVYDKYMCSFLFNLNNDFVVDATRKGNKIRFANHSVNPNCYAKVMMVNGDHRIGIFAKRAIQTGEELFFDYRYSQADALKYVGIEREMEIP

B1: Embryonic ectoderm development (EED), subunit of recombinant human PRC2 (natural protein)
chain: not shown
notes: EED, human, full-length; Stood in the assay as a subunit of PRC2; also called EED^prox; EED^dist; source: as subunit of m1: HighFive / Trichoplusia ni insect cells, baculovirus, purified within PRC2
Regarding B1, the binding result is given as “binds”.
